From publication PMC8906792 (eNeuro, 2022)
Where a chain is given by its changes, count along the chain named. In names and notes the source's numbering stands.

B1: recombinant human αA-crystallin T148D (phosphomimetic) (natural protein, UniProt P02489 1-173, looked up)
chain: MDVTIQHPWFKRTLGPFYPSRLFDQFFGEGLFEYDLLPFLSSTISPYYRQSLFRTVLDSGISEVRSDRDKFVIFLDVKHFSPEDLTVKVQDDFVEIHGKHNERQDDHGYISREFHRRYRLPSNVDQSALSCSLSADGMLTFCGPKIQDGLDATHAERAIPVSREEKPTSAPSS
B2: recombinant human αA-crystallin T148A (nonphosphorylatable) (natural protein, UniProt P02489 1-173, looked up)
chain: B1 chain with D148A

Molecular target: the molecule itself
Experiment: native gel or EMSA; NativePAGE 3-12% Bis-Tris gel, 7.5 ug of recombinant protein per lane; oligomer profile from <480 to 1236 kDa, median size read against markers

| Protein | binding result |
| --- | --- |
| B1 | binds |
| B2 | binds |
